Test results from publication doi:10.1101/2021.01.14.426755 (bioRxiv, 2021).

T1: Tfb2 (yeast (endogenous, purified from yeast), UniProt Q02939 1-513)
T1 sequence: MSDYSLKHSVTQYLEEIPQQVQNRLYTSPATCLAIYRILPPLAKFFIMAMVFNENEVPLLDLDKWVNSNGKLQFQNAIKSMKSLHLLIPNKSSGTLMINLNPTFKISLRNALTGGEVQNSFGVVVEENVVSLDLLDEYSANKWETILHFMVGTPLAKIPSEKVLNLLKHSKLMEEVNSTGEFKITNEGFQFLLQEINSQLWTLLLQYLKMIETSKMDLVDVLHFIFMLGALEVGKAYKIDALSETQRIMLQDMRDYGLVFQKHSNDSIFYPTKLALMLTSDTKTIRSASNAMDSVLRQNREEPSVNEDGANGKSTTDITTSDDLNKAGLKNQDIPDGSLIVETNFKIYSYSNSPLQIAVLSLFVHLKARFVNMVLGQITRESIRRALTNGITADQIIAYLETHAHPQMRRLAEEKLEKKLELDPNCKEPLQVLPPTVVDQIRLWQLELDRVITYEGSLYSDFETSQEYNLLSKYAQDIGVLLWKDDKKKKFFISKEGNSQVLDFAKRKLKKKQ

T2: Rad4-Rad23-Rad33 complex (yeast, UniProt P14736 1-754; P32628 1-398; Q04231 1-177)
T2 sequence 1: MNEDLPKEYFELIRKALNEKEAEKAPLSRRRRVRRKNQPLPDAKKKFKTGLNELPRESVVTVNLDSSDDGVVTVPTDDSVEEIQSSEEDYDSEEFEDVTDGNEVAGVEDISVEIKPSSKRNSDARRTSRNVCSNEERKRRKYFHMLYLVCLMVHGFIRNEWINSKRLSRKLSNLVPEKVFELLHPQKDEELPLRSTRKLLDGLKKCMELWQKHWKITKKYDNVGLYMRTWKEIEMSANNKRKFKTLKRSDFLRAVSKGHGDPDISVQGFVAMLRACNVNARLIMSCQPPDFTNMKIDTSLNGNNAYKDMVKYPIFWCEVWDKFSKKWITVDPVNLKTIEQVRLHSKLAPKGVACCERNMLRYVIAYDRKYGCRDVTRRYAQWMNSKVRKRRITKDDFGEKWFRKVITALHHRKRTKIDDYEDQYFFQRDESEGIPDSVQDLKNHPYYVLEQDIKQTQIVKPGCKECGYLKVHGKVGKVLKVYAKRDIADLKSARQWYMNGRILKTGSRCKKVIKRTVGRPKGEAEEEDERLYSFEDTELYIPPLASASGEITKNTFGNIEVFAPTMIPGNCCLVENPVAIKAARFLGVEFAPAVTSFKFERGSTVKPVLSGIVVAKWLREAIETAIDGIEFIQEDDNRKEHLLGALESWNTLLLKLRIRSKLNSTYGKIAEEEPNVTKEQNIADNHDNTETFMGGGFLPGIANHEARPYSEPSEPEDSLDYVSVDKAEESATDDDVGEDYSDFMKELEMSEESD
T2 sequence 2: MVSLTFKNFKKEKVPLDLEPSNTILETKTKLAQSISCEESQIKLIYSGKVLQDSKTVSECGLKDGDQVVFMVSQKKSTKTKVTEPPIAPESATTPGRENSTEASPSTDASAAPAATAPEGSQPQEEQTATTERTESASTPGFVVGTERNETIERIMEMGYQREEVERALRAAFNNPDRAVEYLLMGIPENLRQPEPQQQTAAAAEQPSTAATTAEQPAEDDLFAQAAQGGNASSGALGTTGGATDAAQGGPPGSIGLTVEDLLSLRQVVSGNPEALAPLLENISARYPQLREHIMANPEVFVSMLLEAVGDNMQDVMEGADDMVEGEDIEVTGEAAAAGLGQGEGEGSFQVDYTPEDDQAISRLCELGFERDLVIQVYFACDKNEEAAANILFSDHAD
T2 sequence 3: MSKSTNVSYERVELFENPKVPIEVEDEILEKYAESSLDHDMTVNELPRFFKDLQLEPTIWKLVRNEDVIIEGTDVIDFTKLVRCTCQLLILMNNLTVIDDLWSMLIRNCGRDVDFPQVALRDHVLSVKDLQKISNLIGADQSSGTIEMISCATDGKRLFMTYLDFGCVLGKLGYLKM

T3: Rad4 (yeast, UniProt P14736 1-754)
T3 sequence: T2 sequence 1

T4: Rad3 (yeast (endogenous, purified from yeast), UniProt P06839 1-778)
T4 sequence: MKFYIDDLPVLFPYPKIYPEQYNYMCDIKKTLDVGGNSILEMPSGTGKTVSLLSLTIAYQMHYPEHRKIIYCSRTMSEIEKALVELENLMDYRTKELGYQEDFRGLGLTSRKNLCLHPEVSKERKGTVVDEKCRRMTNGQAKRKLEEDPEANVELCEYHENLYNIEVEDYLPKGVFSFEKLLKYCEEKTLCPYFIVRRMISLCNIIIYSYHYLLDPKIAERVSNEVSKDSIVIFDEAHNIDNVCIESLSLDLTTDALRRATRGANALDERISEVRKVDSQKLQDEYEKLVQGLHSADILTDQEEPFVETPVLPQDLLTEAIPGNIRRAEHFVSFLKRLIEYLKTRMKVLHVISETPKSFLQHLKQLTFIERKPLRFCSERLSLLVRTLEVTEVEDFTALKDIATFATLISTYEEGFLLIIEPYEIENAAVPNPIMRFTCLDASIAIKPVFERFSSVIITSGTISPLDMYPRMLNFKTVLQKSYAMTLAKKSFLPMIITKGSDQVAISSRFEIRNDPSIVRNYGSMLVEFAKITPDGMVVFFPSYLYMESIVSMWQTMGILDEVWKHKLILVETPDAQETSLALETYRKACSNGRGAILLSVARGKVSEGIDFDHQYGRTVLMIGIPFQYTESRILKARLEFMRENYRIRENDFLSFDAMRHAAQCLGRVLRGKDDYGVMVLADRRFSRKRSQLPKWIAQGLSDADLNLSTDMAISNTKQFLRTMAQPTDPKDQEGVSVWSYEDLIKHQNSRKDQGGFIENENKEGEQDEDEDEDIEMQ

B1: Tfb5 (natural protein)
chain: MARARKGALVQCDPSIKALILQIDAKMSDIVLEELDDTHLLVNPSKVEFVKHELNRLLSKNIYNPMDEEENQ
B2: Ssl2 (natural protein)
chain: MTDVEGYQPKSKGKIFPDMGESFFSSDEDSPATDAEIDENYDDNRETSEGRGERDTGAMVTGLKKPRKKTKSSRHTAADSSMNQMDAKDKALLQDTNSDIPADFVPDSVSGMFRSHDFSYLRLRPDHASRPLWISPSDGRIILESFSPLAEQAQDFLVTIAEPISRPSHIHEYKITAYSLYAAVSVGLETDDIISVLDRLSKVPVAESIINFIKGATISYGKVKLVIKHNRYFVETTQADILQMLLNDSVIGPLRIDSDHQVQPPEDVLQQQLQQTAGKPATNVNPNDVEAVFSAVIGGDNEREEEDDDIDAVHSFEIANESVEVVKKRCQEIDYPVLEEYDFRNDHRNPDLDIDLKPSTQIRPYQEKSLSKMFGNGRARSGIIVLPCGAGKTLVGITAACTIKKSVIVLCTSSVSVMQWRQQFLQWCTLQPENCAVFTSDNKEMFQTESGLVVSTYSMVANTRNRSHDSQKVMDFLTGREWGFIILDEVHVVPAAMFRRVVSTIAAHAKLGLTATLVREDDKIGDLNFLIGPKLYEANWMELSQKGHIANVQCAEVWCPMTAEFYQEYLRETARKRMLLYIMNPTKFQACQFLIQYHERRGDKIIVFSDNVYALQEYALKMGKPFIYGSTPQQERMNILQNFQYNDQINTIFLSKVGDTSIDLPEATCLIQISSHYGSRRQEAQRLGRILRAKRRNDEGFNAFFYSLVSKDTQEMYYSTKRQAFLVDQGYAFKVITHLHGMENIPNLAYASPRERRELLQEVLLKNEEAAGIEVGDDADNSVGRGSNGHKRFKSKAVRGEGSLSGLAGGEDMAYMEYSTNKNKELKEHHPLIRKMYYKNLKK
B3: Tfb1 (natural protein)
chain: MSHSGAAIFEKVSGIIAINEDVSPAELTWRSTDGDKVHTVVLSTIDKLQATPASSEKMMLRLIGKVDESKKRKDNEGNEVVPKPQRHMFSFNNRTVMDNIKMTLQQIISRYKDADIYEEKRRREESAQHTETPMSSSSVTAGTPTPHLDTPQLNNGAPLINTAKLDDSLSKEKLLTNLKLQQSLLKGNKVLMKVFQETVINAGLPPSEFWSTRIPLLRAFALSTSQKVGPYNVLSTIKPVASSENKVNVNLSREKILNIFENYPIVKKAYTDNVPKNFKEPEFWARFFSSKLFRKLRGEKIMQNDRGDVIIDRYLTLDQEFDRKDDDMLLHPVKKIIDLDGNIQDDPVVRGNRPDFTMQPGVDINGNSDGTVDILKGMNRLSEKMIMALKNEYSRTNLQNKSNITNDEEDEDNDERNELKIDDLNESYKTNYAIIHLKRNAHEKTTDNDAKSSADSIKNADLKVSNQQMLQQLSLVMDNLINKLDLNQVVPNNEVSNKINKRVITAIKINAKQAKHNNVNSALGSFVDNTSQANELEVKSTLPIDLLESCRMLHTTCCEFLKHFYIHFQSGEQKQASTVKKLYNHLKDCIEKLNELFQDVLNGDGESMSNTCTAYLKPVLNSITLATHKYDEYFNEYNNNSN
B4: Rad33 (natural protein)
chain: T2 sequence 3

Columns and labels:
Tfb2 = biological target: T1, Tfb2; assay: cryo-EM structure
Rad4-Rad23-Rad33 complex = biological target: T2, Rad4-Rad23-Rad33 complex; assay: cross-linking
Rad4 = biological target: T3, Rad4; assay: cryo-EM structure
Rad3 = biological target: T4, Rad3; assay: cryo-EM structure
Ssl2 = biological target: B2; assay: cryo-EM structure

B1
binding result (Tfb2): binds

B2
binding result (Rad4-Rad23-Rad33 complex): binds

B3
binding result (Rad4): binds
binding result (Rad3): binds
binding result (Rad4-Rad23-Rad33 complex): binds

B4
binding result (Rad4): binds
binding result (Ssl2): binds
